From the supplement of paper PMC7125110
± gives the standard error. Fewer inactive variants are shown than the library holds.

B1: glmS ribozyme (parent)
chain: AUAAAAGCGCCAGAACUACAGAAAUGUAGUUGACGAGGAGGAGGUUUAUCGAAUUUUCGGCGGAUGCCUCCAAA

Columns and labels:
Settings in all cases: with glucosamine-6-phosphate
glucosamine-6-phosphate [1] = variants of: B1; assay: self-cleavage kobs at 640 uM GlcN6P; higher = faster cleavage; RNA array
Outline: (§1)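 Using a hybridised Cy3 probe at 37 °C, barcoded ribozyme variants transcribed in situ by E. coli RNA polymerase on sequenced MiSeq chips were monitored across tiles imaged over ~14 h. The flow contained glucosamine-6-phosphate from 40 μM to 10 mM in HEPES/KCl/Mg(OAc)2 buffer. Signals were normalised to baseline and to non-cleaving reference variants before per-tile medians were fit to one- or two-exponential decays to yield kobs. Weighted Michaelis–Menten fits across concentrations gave kcat and KM.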

glucosamine-6-phosphate [2] = variants of: B1; assay: self-cleavage kobs at 2500 uM GlcN6P; higher = faster cleavage; RNA array
Outline: as §1

glucosamine-6-phosphate [3] = variants of: B1; assay: self-cleavage kobs at 10000 uM GlcN6P; higher = faster cleavage; RNA array
Outline: as §1

| Variant | self-cleavage kobs at 640 uM GlcN6P (glucosamine-6-phosphate [1]) | self-cleavage kobs at 2500 uM GlcN6P (glucosamine-6-phosphate [2]) | self-cleavage kobs at 10000 uM GlcN6P (glucosamine-6-phosphate [3]) |
| --- | --- | --- | --- |
| G43A U49G C50G U57C | < 1e-05 s⁻¹ | – | – |
| G40C U45C A48G | < 1e-05 s⁻¹ | < 1e-05 s⁻¹ | – |
| A42C G44U A64G C68G | < 1e-05 s⁻¹ | – | – |
| G40U C50G | < 1e-05 s⁻¹ | < 1e-05 s⁻¹ | < 1e-05 s⁻¹ |
| C34G U65G | < 1e-05 s⁻¹ | < 1e-05 s⁻¹ | < 1e-05 s⁻¹ |
| A36C G51A C71G | 6.03e-05 ± 2.2e-05 s⁻¹ | – | – |
| A36C G51U C70G | 0.000181 ± 5.1e-05 s⁻¹ | 4.65e-05 ± 1.9e-05 s⁻¹ | – |
| A42U G44U C61G | < 1e-05 s⁻¹ | < 1e-05 s⁻¹ | – |
| G41A C58A U69A | < 1e-05 s⁻¹ | < 1e-05 s⁻¹ | – |
| G41C A64C C67A | < 1e-05 s⁻¹ | – | – |
| A39U G43U C50U | < 1e-05 s⁻¹ | < 1e-05 s⁻¹ | – |
| U45G U69C | 0.0407 ± 0.018 s⁻¹ | – | – |
| G35C A36C G40A G62C A64G C70U | < 1e-05 s⁻¹ | < 1e-05 s⁻¹ | – |
| U46C C67U | 0.000202 ± 5.2e-05 s⁻¹ | 0.000469 ± 0.00013 s⁻¹ | 0.000426 ± 8.9e-05 s⁻¹ |
| U45G U54C C61U | < 1e-05 s⁻¹ | < 1e-05 s⁻¹ | – |
| C34G U46G U65A | < 1e-05 s⁻¹ | < 1e-05 s⁻¹ | – |
| G35A C50U C67G C70U | < 1e-05 s⁻¹ | – | – |
| A39C U45G C70G | < 1e-05 s⁻¹ | < 1e-05 s⁻¹ | – |
| G35A G44A | < 1e-05 s⁻¹ | < 1e-05 s⁻¹ | < 1e-05 s⁻¹ |
| G40A G51A U55A | < 1e-05 s⁻¹ | – | – |
| C34U G51A U57G U69G | 0.000271 ± 9.8e-05 s⁻¹ | – | 0.000296 ± 7.8e-05 s⁻¹ |

| Variant | self-cleavage kobs at 640 uM GlcN6P (glucosamine-6-phosphate [1]) | self-cleavage kobs at 2500 uM GlcN6P (glucosamine-6-phosphate [2]) | self-cleavage kobs at 10000 uM GlcN6P (glucosamine-6-phosphate [3]) |
| --- | --- | --- | --- |
| G37U A64U | < 1e-05 s⁻¹ | < 1e-05 s⁻¹ | – |
| A36C G51A C70G | 9.36e-05 ± 3.3e-05 s⁻¹ | – | – |
| A42C U46G U49A | < 1e-05 s⁻¹ | – | – |
| G37U A39C A64G U69G | < 1e-05 s⁻¹ | – | – |
| C34U U55A U57G C61U | < 1e-05 s⁻¹ | – | < 1e-05 s⁻¹ |
| G41C C50U G59U | < 1e-05 s⁻¹ | – | – |
| G35U A42G U55A | < 1e-05 s⁻¹ | – | – |
| G38U G41A U46G U49G | < 1e-05 s⁻¹ | – | < 1e-05 s⁻¹ |
| G37A A42G C71G | 8.96e-05 ± 2.4e-05 s⁻¹ | 5.5e-05 ± 1.6e-05 s⁻¹ | 8.16e-05 ± 2.3e-05 s⁻¹ |
| G35C A36U A39G | < 1e-05 s⁻¹ | – | – |
| C34U G37A A39G | < 1e-05 s⁻¹ | < 1e-05 s⁻¹ | – |
| C34A G35A A42G | < 1e-05 s⁻¹ | < 1e-05 s⁻¹ | – |
| G43U G66U C71G | < 1e-05 s⁻¹ | < 1e-05 s⁻¹ | – |
| G43C G51A C67U | < 1e-05 s⁻¹ | – | – |
| A36G G66U | < 1e-05 s⁻¹ | < 1e-05 s⁻¹ | < 1e-05 s⁻¹ |
| G40U G44U G62U | < 1e-05 s⁻¹ | < 1e-05 s⁻¹ | – |
| C34A G44U C50A | < 1e-05 s⁻¹ | – | – |
| A36G G41C | < 1e-05 s⁻¹ | – | < 1e-05 s⁻¹ |
| G43C U49A U57G C68G | < 1e-05 s⁻¹ | – | – |
| A33G C50G C68G | 0.00023 ± 6.4e-05 s⁻¹ | 0.000213 ± 4e-05 s⁻¹ | – |
| A39G A42G C50A | < 1e-05 s⁻¹ | < 1e-05 s⁻¹ | – |

| Variant | self-cleavage kobs at 640 uM GlcN6P (glucosamine-6-phosphate [1]) | self-cleavage kobs at 2500 uM GlcN6P (glucosamine-6-phosphate [2]) | self-cleavage kobs at 10000 uM GlcN6P (glucosamine-6-phosphate [3]) |
| --- | --- | --- | --- |
| G43U C70G C71A | < 1e-05 s⁻¹ | < 1e-05 s⁻¹ | – |
| G44C C70A | < 1e-05 s⁻¹ | < 1e-05 s⁻¹ | < 1e-05 s⁻¹ |
| G37U A42C C50A A64U | < 1e-05 s⁻¹ | – | – |
| G38C G41U G44C | < 1e-05 s⁻¹ | < 1e-05 s⁻¹ | – |
| A36G G40U A52U U65C | < 1e-05 s⁻¹ | – | – |
| G41U U47G G51U | < 1e-05 s⁻¹ | < 1e-05 s⁻¹ | – |
| G37C C50U A53G U56C | < 1e-05 s⁻¹ | – | – |
| G38C G44U G51C A52C C71U | < 1e-05 s⁻¹ | – | – |
| A36U G40U G60U | < 1e-05 s⁻¹ | < 1e-05 s⁻¹ | – |
| U45C U47C | 0.000179 ± 5.5e-05 s⁻¹ | 0.000515 ± 0.00013 s⁻¹ | – |
| G35C U54G | < 1e-05 s⁻¹ | < 1e-05 s⁻¹ | – |
| G35U G44U C68A | < 1e-05 s⁻¹ | < 1e-05 s⁻¹ | – |
| G41U G59U G63U | < 1e-05 s⁻¹ | – | – |
| A42C A48U C68G | < 1e-05 s⁻¹ | – | – |
| A42U U47A U49A | < 1e-05 s⁻¹ | < 1e-05 s⁻¹ | – |
| G35U G38U C67A | < 1e-05 s⁻¹ | – | – |
| U45G G60A C67G | < 1e-05 s⁻¹ | < 1e-05 s⁻¹ | – |
| G43A A48U C50A | < 1e-05 s⁻¹ | < 1e-05 s⁻¹ | – |
| C34G G41C C71U | < 1e-05 s⁻¹ | – | – |
| G35C G40A G43U | < 1e-05 s⁻¹ | < 1e-05 s⁻¹ | – |
